Laboratory results taken from patent publication US7122382 (RIKEN, dated 2006).
Where two headings read alike, the source gives them in different places.

T1: Bpx protein (nucleosome assembly protein homologue) (2-1H) (mouse, UniProt P51860 1-460, limits assumed, 35S-methionine label or biotinylated lysine, by its role in the assay)
T1 construct: also called NAP 1-like protein L2
T1 sequence (looked up): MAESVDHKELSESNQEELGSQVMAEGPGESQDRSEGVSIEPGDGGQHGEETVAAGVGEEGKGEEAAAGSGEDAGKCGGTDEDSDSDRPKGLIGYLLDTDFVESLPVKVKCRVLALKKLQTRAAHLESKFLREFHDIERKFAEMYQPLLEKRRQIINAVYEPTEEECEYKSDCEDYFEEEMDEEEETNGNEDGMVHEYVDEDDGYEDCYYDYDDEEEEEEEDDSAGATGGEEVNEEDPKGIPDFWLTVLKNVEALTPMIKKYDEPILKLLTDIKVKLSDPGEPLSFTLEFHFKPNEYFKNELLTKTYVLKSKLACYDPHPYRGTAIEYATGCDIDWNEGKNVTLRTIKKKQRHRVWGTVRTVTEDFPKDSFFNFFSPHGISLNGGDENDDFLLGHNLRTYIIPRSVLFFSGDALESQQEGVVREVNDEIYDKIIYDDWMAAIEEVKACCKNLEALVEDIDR

B1: MB20 protein (function unknown, 2-10F) (other, mouse, UniProt Q794H2 1-544, looked up)
chain: MAEADPKMVTEPGAHGVAEEAMASTACDSGDESDSNSSSSTNSCSSSGSSSSGSSSSSSSSSSSSSSSSSSSSGSSGSSSNGSHLNRKKRVPEPSRRAQRRPSGKLFLDKLPQAVRNRVQALRNIQNECDKVDTLFLRAIHDLERKYAELNKPLYDKRFQIINAEYEPTEEECEWNSEEEFSGDEEMQDDTPNEMPPLEGEEEEESCNEKAEVKEEGTHVPEEVPEAKVEEEEAPKETPEVKTEEKDIPKEGAEEKAEEQESSKEIPEVKGEEKADSTDCIDIAPEEKEDVKEVTQANTENKDQPTEEFTPRAPAREAQKRVPETRPEEGVNIKRARKGKPKKEDPKGIPDYWLTVLKNVDKLGPMIQKCDEPILKFLSDVSLKFSNPGQPIGYTFEFHFLPNPYFRNELLMKTYIIRSKPDHYDPFFAWGWEIEECKGCKIDWRRGKDVTVTTTRSRPGITGEIEVQPRVVPNASFFNFFSPPEIPLIGKLEPREDAILDEDFEIGQILHDNVILKSIYYFTGEINDPYYHDFRDYGNRKYYK
modifications: 35S-methionine label or biotinylated lysine, by its role in the assay
notes: also called NAP1-like protein L3
B2: Caspase 6 (1-9E) (enzyme, mouse, UniProt O08738 1-276, looked up)
chain: MTETDGFYKSREVFDPAEQYKMDHKRRGVALIFNHERFFWHLTLPERRGTNADRDNLTRRFSDLGFEVKCFNDLRAEELLLKIHEVSTSSHIDADCFICVFLSHGEGNHVYAYDAKIEIQTLTGLFKGDKCQSLVGKPKIFIIQACRGSQHDVPVVPLDMVDHQTDKLDNVTQVDAASVYTLPAGADFLMCYSVAEGYYSHRETVNGSWYIQDLCEMLARYGSSLEFTELLTLVNRKVSQRRVDFCKDPDAIGKKQVPCFASMLTKKLHFCPKPSK
modifications: 35S-methionine label or biotinylated lysine, by its role in the assay
B3: Fos (other, UniProt P01101 1-380, looked up)
chain: MMFSGFNADYEASSSRCSSASPAGDSLSYYHSPADSFSSMGSPVNTQDFCADLSVSSANFIPTVTAISTSPDLQWLVQPTLVSSVAPSQTRAPHPYGLPTQSAGAYARAGMVKTVSGGRAQSIGRRGKVEQLSPEEEEKRRIRRERNKMAAAKCRNRRRELTDTLQAETDQLEDEKSALQTEIANLLKEKEKLEFILAAHRPACKIPDDLGFPEEMSVASLDLTGGLPEASTPESEEAFTLPLLNDPEPKPSLEPVKSISNVELKAEPFDDFLFPASSRPSGSETSRSVPDVDLSGSFYAADWEPLHSNSLGMGPMVTELEPLCTPVVTCTPGCTTYTSSFVFTYPEADSFPSCAAAHRKGSSSNEPSSDSLSSPTLLAL
modifications: 35S-methionine label or biotinylated lysine, by its role in the assay
notes: Crude translation mix, not purified
B4: Jun (other, UniProt P05627 1-334, looked up)
chain: MTAKMETTFYDDALNASFLQSESGAYGYSNPKILKQSMTLNLADPVGSLKPHLRAKNSDLLTSPDVGLLKLASPELERLIIQSSNGHITTTPTPTQFLCPKNVTDEQEGFAEGFVRALAELHSQNTLPSVTSAAQPVSGAGMVAPAVASVAGAGGGGGYSASLHSEPPVYANLSNFNPGALSSGGGAPSYGAAGLAFPSQPQQQQQPPQPPHHLPQQIPVQHPRLQALKEEPQTVPEMPGETPPLSPIDMESQERIKAERKRMRNRIAASKCRKRKLERIARLEEKVKTLKAQNSELASTANMLREQVAQLKQKVMNHVNSGCQLMLTQQLQTF
modifications: 35S-methionine label or biotinylated lysine, by its role in the assay
B5: p53 (other, UniProt P02340 1-390, looked up)
chain: MTAMEESQSDISLELPLSQETFSGLWKLLPPEDILPSPHCMDDLLLPQDVEEFFEGPSEALRVSGAPAAQDPVTETPGPVAPAPATPWPLSSFVPSQKTYQGNYGFHLGFLQSGTAKSVMCTYSPPLNKLFCQLAKTCPVQLWVSATPPAGSRVRAMAIYKKSQHMTEVVRRCPHHERCSDGDGLAPPQHLIRVEGNLYPEYLEDRQTFRHSVVVPYEPPEAGSEYTTIHYKYMCNSSCMGGMNRRPILTIITLEDSSGNLLGRDSFEVRVCACPGRDRRTEEENFRKKEVLCPELPPGSAKRALPTCTSASPPQKKKPLDGEYFTLKIRGRKRFEMFRELNEALELKDAHATEESGDSRAHSSYLKTKKGQSTSRHKKTMVKKVGPDSD
modifications: 35S-methionine label or biotinylated lysine, by its role in the assay

Columns and labels:
[1] = target: 2-1E (mouse); assay: single proteins, rows taken as 35S-labelled and columns as biotinylated, streptavidin beads
[2] = target: 2-1F (mouse); assay: as above
[3] = target: 2-1G (mouse); assay: as above
[4] = target: T1, Bpx protein (nucleosome assembly …); assay: as above
[5] = target: 2-10G (mouse); assay: as above
[6] = target: 2-10H (mouse); assay: as above
[7] = target: DnaJ-like protein (Hsj2) (2-10E) (mouse, UniProt P63037 1-397, 35S-methionine label or biotinylated lysine, by its role in the assay); assay: as above
[8] = target: the molecule itself; assay: as above
[9] = target: 1-9F (mouse); assay: as above
[10] = target: 1-9G (mouse); assay: as above
[11] = target: 1-9H (mouse); assay: as above
[12] = target: the molecule itself; assay: as above; remark: listed apart in the source
[13] = target: B4; assay: biotinylated row protein on streptavidin beads, 35S column protein counted
Protocol: (§1) That is, 2.5 μL of each reaction solution was mixed and placed on ice for 60 min. A 15 μL quantity of streptoavidin (Dynabeads) diluted with TBST-1 percent skim milk was added, and the mixture was stirred for 30 min at 4° C. Magnetic force was employed to recover the beads, thorough washing was conducted with TBST, and then the RI of the beads was measured.

[14] = target: luciferase (UniProt P08659 1-550 = luciferase, 35S-methionine label or biotinylated lysine, by its role in the assay); assay: as above
Sequence of luciferase (P08659 whole entry): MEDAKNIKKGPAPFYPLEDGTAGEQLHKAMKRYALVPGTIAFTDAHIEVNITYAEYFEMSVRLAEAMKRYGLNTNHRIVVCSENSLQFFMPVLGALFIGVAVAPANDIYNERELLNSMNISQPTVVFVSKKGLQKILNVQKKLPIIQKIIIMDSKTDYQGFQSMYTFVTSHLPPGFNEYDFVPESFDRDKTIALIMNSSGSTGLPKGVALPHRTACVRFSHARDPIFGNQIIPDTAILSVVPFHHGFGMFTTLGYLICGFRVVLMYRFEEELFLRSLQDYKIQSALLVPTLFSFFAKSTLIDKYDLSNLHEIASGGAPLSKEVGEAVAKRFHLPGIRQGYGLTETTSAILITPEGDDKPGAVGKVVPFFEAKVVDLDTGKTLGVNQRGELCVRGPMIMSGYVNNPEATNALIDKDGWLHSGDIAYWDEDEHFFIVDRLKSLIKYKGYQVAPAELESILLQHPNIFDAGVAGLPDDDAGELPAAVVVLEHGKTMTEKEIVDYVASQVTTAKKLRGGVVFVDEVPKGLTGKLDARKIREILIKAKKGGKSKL
Protocol: as §1

[15] = target: SV40 large T (SV40, UniProt P03070 1-708); assay: as above
Protocol: as §1

[16] = target: B5; assay: as above
Protocol: as §1

[17] = target: the molecule itself; assay: as above
Protocol: as §1

[18] = target: B3; assay: as above
Protocol: as §1

Binder | RI (c.p.m.) [13] [c.p.m.] | RI (c.p.m.) [14] [c.p.m.] | RI (c.p.m.) [15] [c.p.m.] | RI (c.p.m.) [16] [c.p.m.] | RI (c.p.m.) [17] [c.p.m.] | RI (c.p.m.) [18] [c.p.m.] | other results
B1 | – | – | – | – | – | – | RI (cpm) [1]: 60 cpm; RI (cpm) [2]: 60 cpm; RI (cpm) [3]: 72 cpm; RI (cpm) [4]: 736 cpm; RI (cpm) [5]: 67 cpm; RI (cpm) [6]: 98 cpm; RI (cpm) [7]: 87 cpm; RI (cpm) [8]: 168 cpm
B2 | – | – | – | – | – | – | RI (cpm) [9]: 32 cpm; RI (cpm) [10]: 36 cpm; RI (cpm) [11]: 37 cpm; RI (cpm) [12]: 225 cpm
B3 | 675 | 172 | 156 | 169 | 177 | – | –
B4 | – | 131 | 176 | 187 | 204 | 707 | –
B5 | 206 | 154 | – | – | – | 232 | –
